T1: human CD39 on the cell surface (human, UniProt P49961 1-510)
T1 sequence (looked up): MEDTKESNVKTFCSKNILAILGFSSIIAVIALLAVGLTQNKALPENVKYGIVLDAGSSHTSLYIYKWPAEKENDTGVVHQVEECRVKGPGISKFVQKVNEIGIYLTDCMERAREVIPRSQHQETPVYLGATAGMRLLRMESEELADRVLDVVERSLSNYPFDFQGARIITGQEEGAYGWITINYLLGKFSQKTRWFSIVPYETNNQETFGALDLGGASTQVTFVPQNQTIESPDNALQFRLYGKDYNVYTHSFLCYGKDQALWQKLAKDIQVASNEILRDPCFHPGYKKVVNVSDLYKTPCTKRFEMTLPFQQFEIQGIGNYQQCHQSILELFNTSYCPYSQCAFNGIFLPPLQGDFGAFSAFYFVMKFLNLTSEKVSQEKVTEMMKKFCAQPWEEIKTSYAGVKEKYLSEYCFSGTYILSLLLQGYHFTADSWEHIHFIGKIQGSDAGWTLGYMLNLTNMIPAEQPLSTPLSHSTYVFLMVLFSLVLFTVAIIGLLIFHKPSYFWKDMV

T2: hCD39-ECD-His (ACRO, CD9-H52H4) (human, UniProt P49961 38-478)
T2 construct: extracellular domain; Bought protein; also called recombinant antigen; target antigen; not shown: His tag
T2 sequence (looked up): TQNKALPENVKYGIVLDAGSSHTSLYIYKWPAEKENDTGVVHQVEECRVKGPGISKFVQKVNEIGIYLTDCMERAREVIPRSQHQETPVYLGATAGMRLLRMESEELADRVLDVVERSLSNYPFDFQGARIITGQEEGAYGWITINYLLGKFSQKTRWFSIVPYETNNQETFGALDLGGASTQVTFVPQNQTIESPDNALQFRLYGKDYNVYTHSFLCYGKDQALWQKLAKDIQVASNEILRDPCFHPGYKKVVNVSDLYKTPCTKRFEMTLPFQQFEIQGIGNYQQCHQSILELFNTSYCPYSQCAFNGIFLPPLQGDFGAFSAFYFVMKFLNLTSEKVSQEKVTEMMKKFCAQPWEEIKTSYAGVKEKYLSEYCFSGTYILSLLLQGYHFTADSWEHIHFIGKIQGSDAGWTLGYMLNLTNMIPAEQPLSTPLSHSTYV


How the values were obtained:
[1] = target: T1, human CD39 on the cell surface; assay: cell-based or functional assay
[2] = target: T2, hCD39-ECD-His (ACRO, CD9-H52H4); assay: SPR, Biacore 8K, antibody captured by anti-human IgG Fc, hCD39-ECD-His as analyte
Method: The binding kinetics between humanized antibodies and a recombinant antigen were tested using Biacore 8K (GE, biomolecule interaction analyzer). Specifically, an anti-human IgG Fc antibody was directly immobilized on a biosensor chip to capture a test antibody. The antigen hCD39-ECD-His (ACRO, CD9-H52H4) was used as the mobile phase, and 7 concentration gradients (at an initial concentration of 200 nM, 2-fold gradient dilution) were used. The association rate constant ka (M⁻¹ s⁻¹) and dissociation rate constant kd (s⁻¹) were determined. Then, based on the formula KD=kd/ka and the kinetic rate constants, the equilibrium dissociation constant KD (M) of the reaction between the antibody and the relevant target protein was calculated. The humanized antibodies of the present invention maintained high affinity of the chimeric antibody F03 for the target antigen.

[3] = target: T1, human CD39 on the cell surface; assay: FACS on SK-MEL-28 cells (natural human CD39)
[4] = target: T1, human CD39 on the cell surface; assay: FACS on CHOK1-hCD39 cells, FITC-labelled goat anti-human IgG Fc secondary antibody, mean fluorescence intensity (MFI)
Method: The binding of the chimeric antibody F03 of the present invention to CD39 on the cell membrane surface was assayed by FACS. Specifically, CHOK1-hCD39 cells were collected and added to a 96-well plate at 1-3×10⁵ cells/well, the serially diluted chimeric antibody F03 (diluted with 1×PBS to 16.7 μg/mL as an initial concentration, 3-fold gradient dilution) was added, and the mixture was incubated at 4° C. for 30 min; after washing with PBS, an FITC-labeled goat anti-human IgG Fc secondary antibody (Jackson Immunoresearch, 109095008) diluted at 1:200 was added, and the resulting mixture was incubated at 4° C. for 30 min; after washing with PBS, the cell fluorescence intensity was detected using an FACS instrument (Beckman). Data were processed by GraphPad software.

Binder | Enzymatic activity inhibition (EC50 nM) [1] [nM] | Kd [2] [nM] | koff [2] [s⁻¹] | kon [2] [M⁻¹ s⁻¹] | EC50 [3] [nM] | EC50 [4] [mg/L]
humanized antibody F03-12 (antibody, human IgG4 S228P, kappa, V domains shown, Human IgG4 (S228P) and human kappa constant regions) VH: QVQLVQSGAEVKKPGASVKVSCKASGYTFTNYWMYWVRQAPGQGLEWMGRIAPSSGATKYNEKFKNRVTLTVDTSISTAYMELSRLRSDDTAVYYCARSGIYYDYDWFFDVWGQGTTVTVSS VL: DIQMTQSPSSLSASVGDRVTITCKASQDINKYIGWYQQKPGKAPKLLIHYTSTLQPGVPSRFSGSGSGRDYTFTISSLQPEDIATYYCLQYHALLFTFGQGTKLEIKR | 0.06 | 3.68 | 0.000331 | 89900 | 1.12 | 
humanized antibody F03-8 (antibody, human IgG4 S228P, kappa, V domains shown, Human IgG4 (S228P) and human kappa constant regions) VH: QVQLVQSGAEVKKPGASVKVSCKASGYTFTNYWMYWVRQAPGQGLEWIGRIAPSSGATKYNEKFKNRATLTVDTSISTAYMELSRLRSDDTAVYYCARSGIYYDYDWFFDVWGQGTTVTVSS VL: DIQMTQSPSSLSASVGDRVTITCKASQDINKYIGWYQQKPGKAPKLLIHYTSTLQPGVPSRFSGSGSGTDFTFTISSLQPEDIATYYCLQYHALLFTFGQGTKLEIKR | 0.06 |  |  |  | 1 | 
humanized antibody F03-15 (antibody, human IgG4 S228P, kappa, Human IgG4 (S228P) and human kappa constant regions) heavy: not shown light: DIQMTQSPSSLSASVGDRVTITCKASQDINKYIGWYQQKPGKAPKLLIHYTSTLQPGVPSRFSGSGSGRDYTFTISSLQPEDIATYYCLQYHALLFTFGQGTKLEIKRTVAAPSVFIFPPSDEQLKSGTASVVCLLNNFYPREAKVQWKVDNALQSGNSQESVTEQDSKDSTYSLSSTLTLSKADYEKHKVYACEVTHQGLSSPVTKSFNRGEC | 0.02 | 3.33 | 0.000176 | 52800 | 1.11 | 
humanized antibody F03-14 (antibody, human IgG4 S228P, kappa, Human IgG4 (S228P) and human kappa constant regions) heavy: not shown light: DIQMTQSPSSLSASVGDRVTITCKASQDINKYIGWYQQKPGKAPKLLIHYTSTLQPGVPSRFSGSGSGRDYTFTISSLQPEDIATYYCLQYHALLFTFGQGTKLEIKRTVAAPSVFIFPPSDEQLKSGTASVVCLLNNFYPREAKVQWKVDNALQSGNSQESVTEQDSKDSTYSLSSTLTLSKADYEKHKVYACEVTHQGLSSPVTKSFNRGEC | 0.05 | 4.43 | 0.00031 | 69800 | 0.79 | 
humanized antibody F03-6 (antibody, human IgG4 S228P, kappa, V domains shown, Human IgG4 (S228P) heavy chain constant region and human kappa constant region) VH: QVQLVQSGAEVKKPGASVKVSCKASGYTFTNYWMYWVRQAPGQGLEWMGRIAPSSGATKYNEKFKNRVTMTRDTSISTAYMELSRLRSDDTAVYYCARSGIYYDYDWFFDVWGQGTTVTVSS VL: DIQMTQSPSSLSASVGDRVTITCKASQDINKYIGWYQQKPGKAPKLLIHYTSTLQPGVPSRFSGSGSGTDFTFTISSLQPEDIATYYCLQYHALLFTFGQGTKLEIKR | 0.09 |  |  |  | 1.27 | 
humanized antibody F03-11 (antibody, human IgG4 S228P, kappa, V domains shown, Human IgG4 (S228P) and human kappa constant regions) VH: QVQLVQSGAEVKKPGASVKVSCKASGYTFTNYWMYWVRQAPGQGLEWMGRIAPSSGATKYNEKFKNRVTMTRDTSISTAYMELSRLRSDDTAVYYCARSGIYYDYDWFFDVWGQGTTVTVSS VL: DIQMTQSPSSLSASVGDRVTITCKASQDINKYIGWYQQKPGKAPKLLIHYTSTLQPGVPSRFSGSGSGRDYTFTISSLQPEDIATYYCLQYHALLFTFGQGTKLEIKR | 0.03 | 4.2 | 0.000336 | 80100 | 0.94 | 
humanized antibody F03-13 (antibody, human IgG4 S228P, kappa, V domains shown, Human IgG4 (S228P) and human kappa constant regions) VH: QVQLVQSGAEVKKPGASVKVSCKASGYTFTNYWMYWVRQAPGQGLEWIGRIAPSSGATKYNEKFKNRATLTVDTSISTAYMELSRLRSDDTAVYYCARSGIYYDYDWFFDVWGQGTTVTVSS VL: DIQMTQSPSSLSASVGDRVTITCKASQDINKYIGWYQQKPGKAPKLLIHYTSTLQPGVPSRFSGSGSGRDYTFTISSLQPEDIATYYCLQYHALLFTFGQGTKLEIKR | 0.09 |  |  |  | 1 | 
humanized antibody F03-7 (antibody, human IgG4 S228P, kappa, V domains shown, Human IgG4 (S228P) and human kappa constant regions) VH: QVQLVQSGAEVKKPGASVKVSCKASGYTFTNYWMYWVRQAPGQGLEWMGRIAPSSGATKYNEKFKNRVTLTVDTSISTAYMELSRLRSDDTAVYYCARSGIYYDYDWFFDVWGQGTTVTVSS VL: DIQMTQSPSSLSASVGDRVTITCKASQDINKYIGWYQQKPGKAPKLLIHYTSTLQPGVPSRFSGSGSGTDFTFTISSLQPEDIATYYCLQYHALLFTFGQGTKLEIKR | 0.15 |  |  |  | 0.89 | 
chimeric antibody F03 (antibody, human IgG4 S228P, kappa, V domains shown, Variable regions of murine mF03 on human IgG4 (S228P) and human kappa constant regions; expressed in CHO-S cells) VH: QVQLQQPGAELVKPGASVKLSCKTSGYTFTNYWMYWVKHRPGRGLEWIGRIAPSSGATKYNEKFKNKATLTVDKPSSTAYMQLSSLTSEDSAVYYCARSGIYYDYDWFFDVSGTGTTVTVSS VL: DIQMTQSPSSLSASLGGKVTITCKASQDINKYIGWYQHAPGKGPRLLIHYTSTLQPGIPSRFSGSGSGRDYSLSISNLEPEDIATYYCLQYHALLFTFGSGTKLELKR | 0.09 | 2.67 | 0.000252 | 94300 | 2.07 | 2.19

Source: patent US20250011455A1 (HANGZHOU BANGSHUN PHARMACEUTICAL, published 2025)
